The values below come from patent US20220273823A1, “THERANOSTIC CONJUGATES” (Ariel Scientific Innovations Ltd., priority 2019, published 2022).

Data set [1] can be described thus: Cleavage rates for IRD-CLB and 5-CLB in PB and cell medium (time-dependent emission spectra). In kind it is in vitro ADME. Conditions: pH 7.4, incubated at 37° C., read-out: drug release half-life τ1/2 (converted). The protocol: (§1) The biodegradable ester linker (BL) in IRD-CLB and 5-CLB can be hydrolyzed to release free CLB and, accordingly, IRD turns into RD, which is accompanied by a noticeable change in the spectral properties. The time-dependent emission spectra were recorded in PB and CM (see, FIGS. 9A-D) using the excitation wavelengths 720 nm and 532 nm. The first one enabled monitoring of the decrease in the concentration of IRD-CLB and 5-CLB, while the second one—the increase in the concentration of RD and OctA-RD. Only the NIR fluorescence of IRD-CLB and 5-CLB was detected, when excited at 720 nm; and only the red fluorescence of RD and OctA-RD was detected, when excited at 532 nm.
Upon the hydrolytic cleavage, the NIR emission band (FNIR) related to IRD decreases and the red emission band (FRed) of RD increases (FIGS. 9A-D). Based on the time-dependent emission spectra, the drug cleavage profiles for IRD-CLB and 5-CLB were obtained (FIG. 9A) and the drug release rates were quantified by the half-lives (τ1/2).
A stock solution of IRD-CLB and 5-CLB in acetonitrile was added to PB 10 mmol buffer pH 7.4 at 25° C. and cell medium pH 7.4, which both contained 20% of acetonitrile. The absorbance of the resulted solutions at the maximum was 0.10±0.01, when measured in a 1-cm standard quartz cell. The solutions were incubated at 37° C. during 24 hours. In certain periods of time fluorescence spectrum was measured.

In a further data set the test system is SSTRs. As to the kind of experiment: Competitive binding of 5-CLB and free octreotide to PANC-1 receptors (NIR fluorescence imaging). Conditions: 5-CLB 10 μM, Oct x1, x3, x10 molar excess, NIR channel, 60 min after incubation. In kind it is cell-based, human. The protocol: The specificity of 5-CLB towards PANC-1 cell line was supported also by a competitive binding of 5-CLB and commercially available octreotide to the PANC-1 receptors. In a series of experiments, PANC-1 cell line was incubated for 10 min in PBS buffer contained 5% DMSO with a constant concentration of 5-CLB (10 μM) and variable concentration of octreotide (×1, ×3 and ×10 molar excess) and washed out. Then the fluorescence images were taken in the NIR channel in 60 minutes after the incubation.
PANC-1 were incubated for 10 minutes at 37° C. in PB with 5-CLB (10 μM) and increasing concentrations of Oct (xl, x3 and x10 molar excess) and both compounds were washed out. Fluorescence images were taken at 60 min after the incubation and fluorescence intensities remaining in the cells were measured. […] At the next step, the ratiometric fluorescence monitoring of CLB release from the 5-CLB conjugate delivered into the PANC-1, has been conducted. The cells were incubated with 5-CLB for 10 min to allow accumulation of the compound, and fluorescence images were taken over time in two channels. The NIR channel enabled measurements of the signal from IRD dye conjugated with CLB (5-CLB) while the Red channel detected the signal from the RD fluorophore formed upon the CLB release. […]

The nature of data set [2]: Ratiometric fluorescence monitoring of CLB release from 5-CLB in PANC-1. In kind it is cell-based. Conditions: human, PANC-1 cells; PANC-1, 10 μM, 10 min incubation, NIR and Red channels; read-out: CLB cleavage half-life τ1/2. The protocol:
The Fluorescent images were acquired by Photometrics CoolSNAP HQ2 camera mounted on an Olympus iX81 fluorescent microscope. For the Red channel a cube comprising a ET560/40x bandpass excitation filter, ET630/75m bandpass emission filter and T5851pxr dichroic filter was used. For the NIR channel a cube comprising a ET740/40x bandpass excitation filter, ET7801p long pass emission filter and T7701pxr dichroic filter was used. To monitor drug release, Panc-1 cell line was grown in six-well culture plates and then washed with PBS (pH 7.4) two times and then incubated 10 minutes with 5-CLB 10 μM solution in PBS (for better solubility PBS with 3% DMSO was used). After incubation, the samples washed thoroughly with PBS (pH 7.4) two times to remove excess conjugate and the fluorescence changes immediately measured by using fluorescent microscope. […]
The band intensities in a representative experiment were quantified by measurement of related fluorescence intensity for each image (via the “Measure” function) with Image J software.
PANC-1 were incubated for 10 minutes at 37° C. in PB with 5-CLB (10 μM) and increasing concentrations of Oct (xl, x3 and x10 molar excess) and both compounds were washed out. Fluorescence images were taken at 60 min after the incubation and fluorescence intensities remaining in the cells were measured. […]

A short description of data set [3]: Spectral properties of RD, IRD-CLB and 5-CLB in PB and CM. The data set is classed as physicochemical. Conditions: for ΦF / λmaxAb / λmaxFl: 25° C. How it is done: The spectral properties of the dye RD and its conjugates IRD-CLB and 5-CLB were measured at the concentrations (c) of 0.6 μM in 10 mM phosphate buffer pH 7.5 (PB) and cell medium pH 7.5 (CM), both containing 20% of acetonitrile (ACN) to improve solubility of the compounds.
Table 2 presents the absorption (λmaxAb) and emission (λmaxFl) maxima, extinction coefficients (ε) and fluorescence quantum yields (ΦF) of the RD dye and IRD-CLB and 5-CLB conjugates measured at 25° C. in 10 mM phosphate buffer pH 7.5 (PB) and cell medium pH 7.5 (CM).
as §1
Absorption spectra were recorded on a Jasco V-730 UV-Vis spectrophotometer and the fluorescence spectra were measured on Edinburgh FS5 spectrofluorometer. The absorption and fluorescence spectra and the quantum yields (ΦF) were measured in a 1-cm quartz cell at ˜0.5 μM dye concentrations in PB 10 mmol buffer pH 7.4 at 25° C. and cell medium pH 7.4. Excitation wavelength was 720 nm and 532 nm. The recorded fluorescence spectra were corrected using the wavelength-dependent instrument sensitivity coefficients. Absorption and emission maxima were measured with accuracy of ±0.3 nm and ±0.5 nm, respectively, and rounded. For the determination of the quantum yields, the integrated relative intensities were measured versus ICG™ in methanol as the reference (ΦF=0.043) and Cy3™ in PBS (ΦF=0.043). The absorbance values measured for the samples and the reference at the excitation wavelength were 0.04-0.06 measured in a 1-cm cell. The absolute quantum yields were calculated according to Equation 1.

A further data set deals with Panc-1. As to the kind of experiment: XTT cytotoxicity assay, PANC-1. The data set is classed as cell-based, human. Conditions: PANC-1, 10 min at 37° C., up to 25 μM, washed, XTT at 24 hours. The protocol: Application of the 5-CLB conjugate equipped with targeting peptide OctA was studied in the TDD monitoring using PANC-1 cancer cell line that overexpress SSTR-2 and SSTR-5 receptors. Efficient delivery of 5-CLB by the conjugated OctA to PANC-1 was verified by the XTT assay. Cytotoxicity of 5-CLB was compared to that of CLB or OctA added separately. The compounds were incubated with cells for 10 min at 37° C. at concentrations up to 25 μM, and subsequently were washed out, and growth inhibition compared to naïve/native cells was assessed in 24 hours.
The cytotoxicity of the peptide-drug conjugates was determined by measuring the mitochondrial enzyme activity, using a commercial XTT assay kit. Panc-1 cell line was cultured in RPMI medium supplemented with 10% heat-inactivated Fetal Bo-vine Serum (FBS), 2 mM glutamine, 1% penicillin and strep-tomycin and cultured at 37° C. in a humidified incubator with 6% CO2. Cells cultures were initiated in microplate wells at a concentration of 2-4×10^4 and the cells were allowed to adhere for 24 hours. […] Absorbance in the wells were measured with a TECAN Infinite M200 ELISA reader at both 480 and 680 nm—the latter being the background absorbance. […]
A general note: Formazan colour is commonly taken as a measure of viable cells.

Data set [4] can be described thus: Drug (Aza) release from Aza-Flu conjugates in PB, CM and 1.25% LH by time-dependent fluorescence spectra.
[5] abbreviates: cell medium (CM), in CM with 20% acetonitrile.

Regarding `C[C@@H](O)[C@H](NC(=O)[C@@H]1CSSC[C@H](NC(=O)[C@@H](Cc2ccccc2)NC(=O)CCCNC(=O)CCCCCN2/C(=C/C=C3\CCCC(/C=C/C4=[N+](C)c5ccccc5C4(C)C)=C3OC(=O)CCCc3ccc(N(CCCl)CCCl)cc3)C(C)(C)c3ccccc32)C(=O)N[C@@H](Cc2ccccc2)C(=O)N[C@H](Cc2c[nH]c3ccccc23)C(=O)N[C@@H](CCCCN)C(=O)N[C@@H]([C@@H](C)O)C(=O)N1)C(N)=O` [5-CLB], in data set [1] (PB (10 mmol buffer), in PB with 20% acetonitrile), the half-life is approximately 144 min. Also, in data set [1] (setting [5]), the half-life was approximately 120 min and the half-life at 0.6 μM is approximately 120 min. Also, in the data set with SSTRs, the “Fluorescence of 5-CLB accumulated in the cells in presence of free Oct” value was “decreased proportionally to the Oct concentration”. Also, in data set [2], the half-life at 10 μM was approximately 200 min. Moreover, in data set [3] (CM:ACN (4:1, v/v)), the ΦF is 5.9%, the λmaxAb was 787 nm and the λmaxFl is listed as 805 nm. Moreover, in data set [3] (PB and CM), the “emission when excited at 532 nm” value was “no detectable emission”. In addition, in data set [3] (PB:ACN (4:1, v/v)), the ΦF turned out to be 1.5% and the λmaxFl was 796 nm. For the same compound, in data set [3] (PB:ACN (4:1, v/v), c=0.6 μM), the λmaxAb stood at 783 nm. Moreover, in the data set on Panc-1, the growth inhibition result is reported as “dramatically higher growth inhibition compared to CLB or OctA”.
`COc1cc(C2c3[nH]c4ccccc4c3CC3COC(=O)N32)cc(OC)c1O/C=C/C(=O)Oc1ccc2c(c1)Oc1cc(OCC(=O)O)ccc1C21OC(=O)c2ccccc21` (stereo not drawn) [Aza-Flu-COOH, (E)-2-((3′-((3-(2,6-dimethoxy-4-(3-oxo-1,3,5,6,11,11a-hexahydrooxazolo[3′,4′:1,6]pyrido[3,4-b]indol-5-yl)phenoxy)acryloyl)oxy)-3-oxo-3H-spiro [isobenzofuran-1,9′-xanthen]-6′-yl)oxy) acetic acid] gave a half-life in data set [4] of approximately 108 min.
